Measured values as given in patent US20200157219A1 (SYSTIMMUNE, published 2020).

How the values were obtained:
[1] = biological target: T1, human PD-1 expressed on Jurkat cells (human, UniProt Q15116 25-288); assay: flow cytometry on Jurkat/huPD-1 cells, anti-human Fc AF647 secondary, MFI
T1 construct: whole, on cells; also called huPD-1; Jurkat/huPD-1 clonal cell line
Experimental: The human PD-1 gene was subcloned into the pcDNA3.1 mammalian expression vector and transfected into the Jurkat human T cell line. A clonal cell population expressing high levels of huPD-1 was generated by G418 drug selection and single-cell sorting. This Jurkat/huPD-1 clonal cell line was labeled with FVS520 viability dye (BD Biosciences, 1:2000 dilution) for 15 minutes at room temperature. The labeled cells were then diluted in FACS buffer (2% FBS in PBS), added to V-bottom 96-well plates (50,000 cells per well), and stained with 0-25 nM anti-huPD1 or isotype control antibody on ice for 30 minutes. Cells were washed to remove excess primary antibody, then labeled with Alexa luor 647-conjugated goat anti-human Fc secondary antibody (Jackson Immunoresearch, 1:1600 dilution) on ice for 20 minutes. The labeled cells were then washed with FACS buffer before acquisition on a BD FACSCalibur flow cytometer equipped with the Cytek AMS plate loader system. Data points show the median fluorescence intensity (MFI) on the AF647 channel after gating on live cells. Nonlinear regression methods were used to fit curves to each data set, and error bars represent the standard deviation of duplicate samples.

[2] = biological target: T1, human PD-1 expressed on Jurkat cells; assay: blocking of biotinylated human PD-L1 binding to Jurkat/huPD-1 cells, flow cytometry, streptavidin-APC MFI
Experimental: The Jurkat/huPD-1 clonal cell line was labeled with FVS520 viability dye (BD Biosciences, 1:2000 dilution) for 15 minutes at room temperature. The labeled cells were then diluted in FACS buffer (2% FBS in PBS), added to V-bottom 96-well plates (50,000 cells per well), and stained with 0-100 nM anti-huPD1 or isotype control antibody on ice for 30 minutes. Cells were washed to remove excess antibody, then labeled with 15 ug/ml His-tag purified, monobiotinylated […] on ice for 30 minutes. Cells were washed again with FACS buffer, then labeled with 0.25 ug/ml APC-conjugated streptavidin on ice for 20 minutes. Cells were washed again with before acquisition on a BD FACSCalibur flow cytometer equipped with the Cytek AMS plate loader system. AB1HU-AB5HU results in this assay are shown in FIG. 3. and show the median fluorescence intensity (MFI) on the APC channel after gating on live cells. Error bars represent the standard deviation of duplicate samples.

[3] = biological target: T1, human PD-1 expressed on Jurkat cells; assay: blocking of biotinylated human PD-L2 binding to Jurkat/huPD-1 cells, flow cytometry, streptavidin-APC MFI
Experimental: The Jurkat/huPD-1 clonal cell line was labeled with FVS520 viability dye (BD Biosciences, 1:2000 dilution) for 15 minutes at room temperature. The labeled cells were then diluted in FACS buffer (2% FBS in PBS), added to V-bottom 96-well plates (50,000 cells per well), and stained with 0-100 nM anti-huPD1 or isotype control antibody on ice for 30 minutes. Cells were washed to remove excess antibody, then labeled with 15 ug/ml His-tag purified, monobiotinylated huPD-L2 on ice for 30 minutes. Cells were washed with FACS buffer, then labeled with 0.25 ug/ml APC-conjugated streptavidin on ice for 20 minutes. Cells were washed again with FACS buffer before acquisition on a FACSCalibur flow cytometer equipped with the Cytek AMS plate loader system. […] Error bars represent the standard deviation of duplicate samples.

[4] = biological target: T2, human PD-1 extracellular domain (human, UniProt Q15116 25-170); assay: bio-layer interferometry (Octet Red 96), antibody on anti-human Fc biosensor, PD-1 ECD in solution, 1:1 global fit, 30 C
T2 construct: extracellular domain; Soluble analyte in the bio-layer interferometry assay; also called recombinant human PD-1 extracellular domain protein
Experimental: The binding kinetics of selected anti-PD-1 antibodies AB1-AB5 and AB1HU-AB5HU was determined by bio-layer interferometry analysis on a ForteBio Octet Red 96 instrument. First, purified antibodies were produced by protein A chromatography using HEK-293 transiently-transfected antibody supernatants. This assay was performed by immobilizing the purified antibodies to anti-human Fc biosensors. PD-1 binding to and dissociation from the biosensors was then observed at various concentrations of PD-1. Specifically, eight anti-human Fc biosensors were placed into wells containing the same purified antibody for 5 minutes. Biosensors were equilibrated in kinetics buffer (Pall ForteBio) for 1 minute to establish a baseline. Association of PD-1 was observed by placing the biosensors into wells containing various concentrations of human PD-1 extracellular domain for 5 minutes. Dissociation was measured after transfer of the biosensors into kinetics buffer and monitoring the interferometry signals for 15 minutes. All steps of the assay were performed at 30° C. with shaking at 1000 RPM. The on and off rates (kon and koff) and the equilibrium binding constant KD were determined using the software provided by the manufacturer and were fit using a 1:1 binding global fit model comprising several of the concentrations tested.

[5] = biological target: T1, human PD-1 expressed on Jurkat cells; assay: flow cytometry on Jurkat/huPD-1 cells, biotinylated PD-L2 detected with streptavidin-APC, MFI

T1 sequence (Q15116 25-288): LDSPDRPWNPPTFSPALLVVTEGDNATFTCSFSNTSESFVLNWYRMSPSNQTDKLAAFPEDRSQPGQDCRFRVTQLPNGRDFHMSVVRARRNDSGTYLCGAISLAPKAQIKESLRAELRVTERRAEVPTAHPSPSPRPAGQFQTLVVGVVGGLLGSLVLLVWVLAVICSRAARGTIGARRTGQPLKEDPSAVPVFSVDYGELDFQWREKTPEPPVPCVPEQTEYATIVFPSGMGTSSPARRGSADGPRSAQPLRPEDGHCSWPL
T2 sequence (Q15116 25-170): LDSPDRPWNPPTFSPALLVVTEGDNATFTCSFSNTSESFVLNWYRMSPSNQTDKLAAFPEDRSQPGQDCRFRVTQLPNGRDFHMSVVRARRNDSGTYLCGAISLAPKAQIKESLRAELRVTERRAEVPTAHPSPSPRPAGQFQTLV

| EC50 (read off the curve) [1] [nM] | IC50 (read off the curve) [2] [nM] | IC50 (read off the curve) [3] [nM] | Kd [4] [nM] | koff [4] [s⁻¹] | kon [4] [M⁻¹ s⁻¹] | binding result [5] | Binder |
| --- | --- | --- | --- | --- | --- | --- | --- |
|  |  |  | 4.3 | 0.00038 | 87000 |  | AB4HU (antibody, human IgG1, kappa, V domains shown, Humanized, human gamma-1 / kappa constant domains as in the full-length entries; also called humanized form of antibody AB4) VH: EVQLVESGGGLVQPGGSLRLSCTASGFSLSSYAMSWVRQAPGKGLEYIGYIGDTTGIAYASWANGRFTISKDNTKNTVDLQMNSLRAEDTAVYYCARGWSYLDIWGQGTLVTVSS VL: ALVMTQSPSSLSASVGDRVTITCQASQNIYSNLAWYQQKPGKVPKLLIYQASTLASGVPSRFSGSGYGTDFTLTISSLQPEDVATYYCQGGYYSAALNTFGGGTKVEIKR |
|  |  |  |  |  |  | binds | recombinant human PD-L2 (ligand, UniProt Q9BQ51 20-220, looked up, monobiotinylated, His-tag purified, recombinant soluble protein; also called huPD-L2) ligand: LFTVTVPKELYIIEHGSNVTLECNFDTGSHVNLGAITASLQKVENDTSPHRERATLLEEQLPLGKASFHIPQVQVRDEGQYQCIIIYGVAWDYKYLTLKVKASYRKINTHILKVPETDEVELTCQATGYPLAEVSWPNVSVPANTSHSRTPEGLYQVTSVLRLKPPPGRNFSCVFWNTHVRELTLASIDLQSQMEPRTHPT |
|  |  |  | 86 | 0.0057 | 67000 |  | AB2 (antibody, human IgG1, kappa, V domains shown, Rabbit variable domains on human IgG1 / human kappa constant domains; also called AB2 chimeric) VH: QEQLVESGGGLVQPEGSLTLTCTASGFSFSSYWMCWVRQAPGKGLEWIGCITTGSGSTYYASWAKRRFTISKTSSTTVTLQMTSLTAADTATYFCTRAFDLWGPGTLVTVSS VL: DVVMTQTPASVSAVVGGTVTIKCQASQSIYSYLNWYQQKPGQPPKLLIYGASNLASGVSSRFKGSGSGTEFTLTISDLECADAATYYCQCSWLSGAVGNAFGGGTEVVVKR |
|  |  |  | 6.6 | 0.0004 | 61000 |  | AB5HU (antibody, human IgG1, kappa, V domains shown, Humanized, human gamma-1 / kappa constant domains as in the full-length entries; also called humanized form of antibody AB5; ABSHU [sic]) VH: EVQLLESGGGLVQPGGSLRLSCAASGFTFSSSHWICWVRQAPGKGLEWIACIYTGSIDVFYYASWAKGRFTISRDNSKNTLYLQMNSLRAEDTAVYYCARAANTDTTYFNLWGQGTLVTVSS VL: AYDMTQSPSSLSASVGDRVTINCQASQSINNQLSWYQQKPGKVPKLLIYGASTLASGVPSRFTGSGSGTDFTLTISSLQPEDVATYYCHVHYCSGGSCFWAFGGGTKVEIKR |
|  |  |  | 3.3 | 0.00026 | 78000 |  | AB5 (antibody, human IgG1, kappa, V domains shown, Rabbit variable domains on human IgG1 / human kappa constant domains; also called AB5 chimeric) VH: QEQLEESGGDLVKPEGSLTLTCTASGFSFSSSHWICWVRQAPGKGLEWIACIYTGSIDVFYCASWAKGRFTISKPSSTTVTLQVPSLTAADTATYFCARAANTDTTYFNLWGPGTLVTVSS VL: AYDMTQTPSSVSAAVGGTVTINCQASQSINNQLSWYQQKPGQPPKLLIYGASTLASGVPSRFTGSGSGTEFTLTISGVQCDDAATYYCHVHYCSGGSCFWAFGGGTEVVVKR |

The next lines start with the binder.

| Binder | EC50 (read off the curve) [1] [nM] | IC50 (read off the curve) [2] [nM] | IC50 (read off the curve) [3] [nM] | Kd [4] [nM] | koff [4] [s⁻¹] | kon [4] [M⁻¹ s⁻¹] | binding result [5] |
| --- | --- | --- | --- | --- | --- | --- | --- |
| AB2HU (antibody, human IgG1, kappa, V domains shown, Humanized, human gamma-1 / kappa constant domains as in the full-length entries; also called humanized form of antibody AB2) VH: QEQLLESGGGLVQPGGSLRLSCTASGFSFSSYWMCWVRQAPGKGLEWIGCITTGSGSTYYASWAKRRFTISKDNSKNTVTLQMNSLRAEDTAVYYCTRAFDLWGQGTLVTVSS VL: DIQMTQSPSSLSASVGDRVTITCQASQSIYSYLNWYQQKPGKAPKLLIYGASNLASGVPSRFSGSGSGTDFTLTISSLQPEDFATYYCQSSWLSGAVGNAFGGGTKVEIKR | ~0.6 | ~2 | ~0.2 | 17 | 0.0015 | 89000 |  |
| AB1 (antibody, human IgG1, kappa, V domains shown, Rabbit variable domains on human IgG1 / human kappa constant domains; purified by protein A from HEK-293 supernatant; also called AB1 chimeric; rabbit/human chimeric anti-PD-1 antibody AB1) VH: QSLEESGGDLVKPEGSLTLTCKASGFDFSSGYWICWVRQAPGKGLELIACIYAGTSGSTSYASWARGRFTISETSSTTVTLQMTSLTAADSATYFCARNLYTYNSLWGQGTLVTVSS VL: QVLTQTASSVSAAVGGTVTISCQSSQSVYDNNWLAWYQQKPGQPPMLLIYTVSTLASGVSSRFKGSGSGTQFTLTISGVQCDDAATYYCQGTYYSSGWNFAFGGGTEVVVKR |  |  |  | 4.8 | 0.00016 | 36000 |  |
| AB3HU (antibody, human IgG1, kappa, V domains shown, Humanized, human gamma-1 / kappa constant domains as in the full-length entries; also called humanized form of antibody AB3) VH: QEQVKETGGGLVQPGGSLRLSCAASGFTISSYGVSWVRQAPGKGLEWVALIFPGIGFKDYASWVNGRFTLSSDNAQNTVELQMNSLRAEDTAVYYCARDLDLWGQGTLVTVSS VL: DIQMTQSPSSLSASVGDRVTITCQSSPSVYSNYLSWYQQKPGKVPKLLIYYASTLASGVPSRFSGSGSGTDFTLTISSLQPEDVATYYCAGGYSSSTRAFGGGTKVEIKR | ~1 | ~1 | ~1 | 1.1 | 0.00014 | 130000 |  |
| AB3 (antibody, human IgG1, kappa, V domains shown, Rabbit variable domains on human IgG1 / human kappa constant domains; also called AB3 chimeric) VH: QEQVKETGGGLVQPGGSLTLSCKASGFTISSYGVSWVRQAPGKGLEWIALIFPGIGFKDYASWVNGRFTLSSDNAQNTVELQMNSLTAADTAAYFCARDLDLWGQGTLVTVSS VL: QVLTQTPSPVSAAVGGTVSISCQSSPSVYSNYLSWFQQKPGQPPKLLIYYASTLASGVPSRFKGSGSGTQFTLTISDVQCDDAATYYCAGGYSSSTRAFGGGTEVVVKR |  |  |  | 0.9 | 0.00012 | 130000 |  |
| AB4 (antibody, human IgG1, kappa, V domains shown, Rabbit variable domains on human IgG1 / human kappa constant domains; also called AB4 chimeric) VH: QSLEESGGRLVTPGTPLTLTCTVSGFSLSSYAMSWVRQAPGKGLEYIGYIGDTTGIAYASWANGRFTISKTSTTVDLKITSPTTGDTATYFCARGWSYLDIWGQGTLVTVSS VL: ALVMTQTPSSVSAAVGGTVTINCQASQNIYSNLAWYQQKPGQPPSLLIYQASTLASGVSSRFSGSGYGTEFTLTISDLECADAATYYCQGGYYSAALNTFGGGTEVVVKR |  |  |  | 9.2 | 0.001 | 110000 |  |
| AB1HU (antibody, human IgG1, kappa, V domains shown, Humanized, human gamma-1 / kappa constant domains as in the full-length entries; also called humanized form of antibody AB1) VH: EVQLVESGGGLVQPGGSLRLSCAASGFDFSSGYWICWVRQAPGKGLELIACIYAGTSGSTSYASWARGRFTISETSKNTVTLQMNSLRAEDSAVYYCARNLYTYNSLWGQGTLVTVSS VL: DIQMTQSPSTLSASVGDRVTITCQSSQSVYDNNWLAWYQQKPGKAPKLLIYTVSTLASGVPSRFSGSGSGTEFTLTISSLQPDDFATYYCQGTYYSSGWNFAFGGGTKVEIKR |  | ~4 |  | 16 | 0.0002 | 12000 |  |
